Here are results for 2 molecules from US20240109963A1.

Experiment [1] deals with Claudin 18.1 on CHO cells (CHO+ Claudin 18.1) (UniProt P56856). Briefly: flow cytometry, unpurified culture supernatant on CHO_18.1 cells, anti-c-Myc 9E10 + Avidin-PE; parental CHO in the same table: 1.71 %. A general note: In flow cytometry, cells or beads pass a laser one at a time.
Experiment [2] shares this target. Briefly: flow cytometry, unpurified culture supernatant on CHO_18.1 cells, anti-c-Myc 9E10 + Avidin-PE; parental CHO in the same table: 1.25 %.

Chain of Claudin 18.1 on CHO cells (CHO+ Claudin 18.1) (P56856 whole entry): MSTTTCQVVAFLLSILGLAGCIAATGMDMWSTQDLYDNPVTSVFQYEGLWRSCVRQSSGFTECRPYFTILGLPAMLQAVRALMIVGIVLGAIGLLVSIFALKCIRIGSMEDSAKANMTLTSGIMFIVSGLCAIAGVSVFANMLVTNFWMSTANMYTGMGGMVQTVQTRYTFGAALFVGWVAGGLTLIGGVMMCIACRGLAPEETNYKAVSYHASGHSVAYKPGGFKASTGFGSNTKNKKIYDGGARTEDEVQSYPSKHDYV

B1: Claudin 18.2-3C2 (VHH)
VHH: QVQLVESGGGLVQPGGSLRLSCAASGFTFSNYAMYWVRQAPGKGPEWVSVISGGGGVISYADSVKGRFTISRDNAKNTMYLQMNSLKPEDTAVYYCNAQSAVWWENDYWGQGTQVTVSS
Take B1: in experiment [1], the PE-Positive Cells (%) came out at 7.32%.

B2: Claudin 18.2-4G1 (VHH)
VHH: QVQLVESGGGVVQTGGSLRLTCEISGAALSSYTMGWFRQAPGKEREFVAAISWGGSITWYADSVKGRFTISRDNAKNTVYLQMNSLKPEDTAVYYCHAEGQFGALSYPKDYWGQGTQVTVSS
For the molecule B2, in experiment [2], the PE-Positive Cells (%) is 6.79%.
